From patent publication US20180037644A1 (Pfizer, published 2018)

Experiments:
human IL-33 (mm2) [1] = target: T1, human IL-33 (mm2) (human, UniProt O95760 112-270); experiment: SPR, biotinylated IL-33 on streptavidin sensor, Fab in solution; immobilized IL-33 (mm2); Fab in solution
T1 construct: Variant in which all four cysteine residues are serine; the entry carries an N-terminal Met and a C-terminal His6; Biotinylated in some assays; also called hIL-33 (mm2); huIL-33 (mm2)
T1 chain: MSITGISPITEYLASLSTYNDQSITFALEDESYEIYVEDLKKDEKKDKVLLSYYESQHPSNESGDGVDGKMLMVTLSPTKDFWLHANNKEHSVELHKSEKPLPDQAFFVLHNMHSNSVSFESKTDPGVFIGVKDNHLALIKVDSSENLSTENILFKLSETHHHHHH
Protocol: (§1) Surface plasmon resonance experiments were conducted in two formats.

human IL-33 (mm2) [2] = target: T1, human IL-33 (mm2); experiment: SPR, IL-33 amine-coupled to CM5, Fab in solution, 37 C
Protocol: (§2) Biacore kinetic assays were conducted at 37° C. at a collection rate of 1 Hz on a Biacore T200 instrument (GE Healthcare). Human IL33 (mm2), cynomolgus monkey IL-33, and reduced huIL33 wt were covalently coupled to a CM5 sensor chip (catalogue number BR100530, GE Healthcare) using an amine coupling kit (catalogue number BR100050, GE Healthcare) according to the manufacturer's protocol. […] The dilution and running buffer was HBS-EP+(10 mM HEPES pH 7.4, 0.15M NaCl, 3 mM EDTA, 0.05% P-20). Rate constants and affinities were determined by fitting the resulting sensorgram data to a 1:1 model in Biacore T200 Evaluation software version 1.0 (GE Healthcare).

[3] = target: T2, cynomolgus monkey IL-33 (cys mut) (cynomolgus monkey); experiment: as above
T2 construct: Variant in which the three cysteine residues are serine; N-terminal Met and C-terminal His6 in the entry; also called cyno IL-33; cyno IL-33 (cys mut)
T2 chain: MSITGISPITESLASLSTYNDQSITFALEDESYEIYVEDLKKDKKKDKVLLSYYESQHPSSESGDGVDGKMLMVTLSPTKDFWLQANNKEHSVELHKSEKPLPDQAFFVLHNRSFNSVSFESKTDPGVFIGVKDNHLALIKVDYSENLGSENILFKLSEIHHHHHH
Protocol: as §2

[4] = target: T3, human IL-33 WT, reduced with DTT (human, UniProt O95760 112-270); experiment: as above
T3 construct: Wild-type cysteines, FLAG tag in the entry; reduced with 3 mM DTT before use; also called huIL33 wt; hu IL-33 (WT + DTT)
T3 sequence: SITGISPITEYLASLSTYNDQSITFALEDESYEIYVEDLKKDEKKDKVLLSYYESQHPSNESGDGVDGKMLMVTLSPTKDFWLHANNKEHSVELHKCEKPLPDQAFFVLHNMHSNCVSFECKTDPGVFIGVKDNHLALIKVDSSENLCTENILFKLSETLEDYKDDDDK
Protocol: as §2

IL-1α = target: T4, IL-1α (UniProt P01583 113-271); experiment: SPR (Biacore T200), Fab captured on the chip, cytokine injected
T4 sequence (looked up): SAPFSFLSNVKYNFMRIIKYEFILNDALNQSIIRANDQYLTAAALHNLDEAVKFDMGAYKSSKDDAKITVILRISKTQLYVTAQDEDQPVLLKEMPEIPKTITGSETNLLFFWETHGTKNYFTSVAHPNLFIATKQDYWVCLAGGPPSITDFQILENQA
Excerpt: (§3) The panel of cytokines included IL-1α, IL-1β, IL-18, IL-36α, and IL-36γ.

IL-1β = IL-1β (UniProt P01584 117-269); experiment: as above
Excerpt: as §3

IL-36α = target: T5, IL-36α (UniProt Q9UHA7 6-158); experiment: as above
T5 sequence (looked up): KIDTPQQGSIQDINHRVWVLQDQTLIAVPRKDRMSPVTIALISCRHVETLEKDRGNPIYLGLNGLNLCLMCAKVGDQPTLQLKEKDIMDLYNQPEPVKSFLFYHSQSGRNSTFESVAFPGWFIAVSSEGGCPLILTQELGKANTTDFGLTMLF
Excerpt: as §3

IL-18 = target: T6, IL-18 (UniProt Q14116 37-193); experiment: as above
T6 sequence (looked up): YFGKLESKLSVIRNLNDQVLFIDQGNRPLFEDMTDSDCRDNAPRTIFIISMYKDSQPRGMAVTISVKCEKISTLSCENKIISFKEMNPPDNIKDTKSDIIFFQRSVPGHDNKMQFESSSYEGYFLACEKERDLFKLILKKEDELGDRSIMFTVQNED
Excerpt: as §3

IL-36γ = target: T7, IL-36γ (UniProt Q9NZH8 18-169); experiment: as above
T7 sequence (looked up): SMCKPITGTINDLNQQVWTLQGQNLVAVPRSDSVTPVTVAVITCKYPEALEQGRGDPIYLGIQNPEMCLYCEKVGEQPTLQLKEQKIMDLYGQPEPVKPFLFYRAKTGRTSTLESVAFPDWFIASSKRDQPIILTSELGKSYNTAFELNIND
Excerpt: as §3

human IL-33 (mm2) [5] = target: T1, human IL-33 (mm2); experiment: SPR, Fab captured by anti-human Fab kit, IL-33 in solution
Protocol: Fab fragment affinity was measured by two methods, surface plasmon resonance using a BIAcore instrument, with either Fab or IL-33 captured on the chip, and solution equilibrium affinity measurements using a KinExA instrument, with both Fab and IL-33 in solution.
as §1

B1: 7E8 CDR graft Fab (Fab, V domains shown)
VH: EVQLVESGGGLVQPGGSLRLSCAASGFTFSSYWMYWVRQAPGKGLEWVASITPNGGNTYYPDSVKGRFTISRDNAKNSLYLQMNSLRAEDTAVYYCARGHYYYTSYSLGYWGQGTLVTVSS
VL: DIQMTQSPSSLSASVGDRVTITCKASQNINKHLDWYQQKPGKAPKLLIYFTNNLQTGVPSRFSGSGSGTDFTLTISSLQPEDFATYYCFQYNNGWTFGGGTKVEIKR
notes: also called 7E8 Fab; CDR grafted-7E8 Fab
kon (human IL-33 (mm2) [1]): 5.47e+06 M⁻¹ s⁻¹
Kd (human IL-33 (mm2) [2]): 15.5 pM
koff (human IL-33 (mm2) [2]): 4.17e-05 s⁻¹
kon (human IL-33 (mm2) [2]): 2.74e+06 M⁻¹ s⁻¹
Kd [3]: 14.4 pM
koff [3]: 4.07e-05 s⁻¹
kon [3]: 2.81e+06 M⁻¹ s⁻¹
Kd [4]: 19.1 pM
koff [4]: 5.79e-05 s⁻¹
kon [4]: 3.05e+06 M⁻¹ s⁻¹
binding result (IL-1α): no binding
binding result (IL-1β): no binding
binding result (IL-36α): no binding
binding result (IL-18): no binding
binding result (IL-36γ): no binding
Kd (human IL-33 (mm2) [5]): 250 pM
koff (human IL-33 (mm2) [5]): 0.000301 s⁻¹
kon (human IL-33 (mm2) [5]): 1.38e+06 M⁻¹ s⁻¹
